Values quoted from earlier work in publication PMC10653114.

Assays:
Lys55 = Lys55 (UniProt position 59, FEELDKNGDGE); conditions: 300 K; Conc. 0.00 (unit not given; Na+/Cl–); apo (Ca2+-free), inferred from the apo structure 1CLB used
Lys29 = Lys29 (UniProt position 33, SKEELKLLLQT); conditions: 300 K; Conc. 0.00 (unit not given; Na+/Cl–); apo (Ca2+-free), inferred from the apo structure 1CLB used
Lys41 [1] = biological target: Lys41 (UniProt position 45, FPSLLKGPSTL); conditions: 300 K; Conc. 0.00 (unit not given; Na+/Cl–); apo (Ca2+-free), inferred from the apo structure 1CLB used
Lys71 = Lys71 (UniProt position 75, FQVLVKKISQ-); conditions: 300 K; Conc. 0.00 (unit not given; Na+/Cl–); apo (Ca2+-free), inferred from the apo structure 1CLB used
Lys12 = Lys12 (UniProt position 16, KGIFEKYAAKE); conditions: 300 K; Conc. 0.00 (unit not given; Na+/Cl–); apo (Ca2+-free), inferred from the apo structure 1CLB used
Lys72 = Lys72 (UniProt position 76, QVLVKKISQ--); conditions: 300 K; Conc. 0.00 (unit not given; Na+/Cl–); apo (Ca2+-free), inferred from the apo structure 1CLB used
Lys16 = Lys16 (UniProt position 20, EKYAAKEGDPN); conditions: 300 K; Conc. 0.00 (unit not given; Na+/Cl–); apo (Ca2+-free), inferred from the apo structure 1CLB used
Lys25 = Lys25 (UniProt position 29, PNQLSKEELKL); conditions: 300 K; Conc. 0.00 (unit not given; Na+/Cl–); apo (Ca2+-free), inferred from the apo structure 1CLB used
Lys7 = Lys7 (UniProt position 11, SPEELKGIFEK); conditions: 300 K; Conc. 0.00 (unit not given; Na+/Cl–); apo (Ca2+-free), inferred from the apo structure 1CLB used
Asp12 = Asp12 (UniProt position 59, FDGVADYLQTY); conditions: 298 K; Conc. 0.0 (unit not given; Na+/Cl–)
Asp44 = Asp44 (UniProt position 91, KGNLADVAPGK); conditions: 298 K; Conc. 0.0 (unit not given; Na+/Cl–)
Asp93 = Asp93 (UniProt position 140, ILYSSDWLIYK); conditions: 298 K; Conc. 0.0 (unit not given; Na+/Cl–)
Glu73 = Glu73 (UniProt position 120, GRTWREADINY); conditions: 298 K; Conc. 0.0 (unit not given; Na+/Cl–)
Asp75 = Asp75 (UniProt position 122, TWREADINYTS); conditions: 298 K; Conc. 0.0 (unit not given; Na+/Cl–)
Asp86 = Asp86 (UniProt position 133, GFRNSDRILYS); conditions: 298 K; Conc. 0.0 (unit not given; Na+/Cl–)
Asp22 = Asp22 (UniProt position 69, YHKLPDNYITK); conditions: 298 K; Conc. 0.0 (unit not given; Na+/Cl–)
Asp54 = Asp54 (UniProt position 101, KSIGGDIFSNR); conditions: 298 K; Conc. 0.0 (unit not given; Na+/Cl–)
Asp8 = Asp8 (UniProt position 55, VINTFDGVADY); conditions: 298 K; Conc. 0.0 (unit not given; Na+/Cl–)
Asp101 = Asp101 (UniProt position 148, IYKTTDHYQTF); conditions: 298 K; Conc. 0.0 (unit not given; Na+/Cl–)
Glu29 = Glu29 (UniProt position 76, YITKSEAQALG); conditions: 298 K; Conc. 0.0 (unit not given; Na+/Cl–)
Glu60 = Glu60 (UniProt position 107, IFSNREGKLPG); conditions: 298 K; Conc. 0.0 (unit not given; Na+/Cl–)
Glu49 = Glu49 (UniProt position 84, NFKSAEDCMRT); assay: NMR (only per the titles of cited refs 78 and 79; not given); conditions: 308 K; Conc. 0.0 (unit not given; Na+/Cl– counter-ions in the simulation)
Asp50 = Asp50 (UniProt position 85, FKSAEDCMRTC); assay: as above; conditions: 308 K; Conc. 0.0 (unit not given; Na+/Cl– counter-ions in the simulation)
Asp3 = Asp3 (UniProt position 38, KAQRPDFCLEP); assay: as above; conditions: 308 K; Conc. 0.0 (unit not given; Na+/Cl– counter-ions in the simulation)
Lys26 = Lys26 (UniProt position 61, YFYNAKAGLCQ); assay: as above; conditions: 308 K; Conc. 0.0 (unit not given; Na+/Cl– counter-ions in the simulation)
Lys41 [2] = biological target: Lys41 (UniProt position 76, GGCRAKRNNFK); assay: as above; conditions: 308 K; Conc. 0.0 (unit not given; Na+/Cl– counter-ions in the simulation)
Lys15 = Lys15 (UniProt position 50, YTGPCKARIIR); assay: as above; conditions: 308 K; Conc. 0.0 (unit not given; Na+/Cl– counter-ions in the simulation)
Lys46 = Lys46 (UniProt position 81, KRNNFKSAEDC); assay: as above; conditions: 308 K; Conc. 0.0 (unit not given; Na+/Cl– counter-ions in the simulation)
Glu7 = Glu7 (UniProt position 42, PDFCLEPPYTG); assay: as above; conditions: 308 K; Conc. 0.0 (unit not given; Na+/Cl– counter-ions in the simulation)
Lys94 = Lys94 (UniProt position 114, NGFSNKCSSL-); assay: not stated (the title of ref 83 mentions NMR pH-dependent chemical shifts); conditions: 313 K; Conc. 0.0 (unit not given; Na+/Cl–)
Asp21 = Asp21 (UniProt position 41, VSILSDASFNQ); assay: as above; conditions: 313 K; Conc. 0.0 (unit not given; Na+/Cl–)
Lys61 = Lys61 (UniProt position 81, CNTMIKKIVTL); assay: as above; conditions: 313 K; Conc. 0.0 (unit not given; Na+/Cl–)
Asp30 = Asp30 (UniProt position 50, NQCSTDSGYSM); assay: as above; conditions: 313 K; Conc. 0.0 (unit not given; Na+/Cl–)
Asp72 = Asp72 (UniProt position 92, NPPNCDLTVPT); assay: as above; conditions: 313 K; Conc. 0.0 (unit not given; Na+/Cl–)
Asp43 = Asp43 (UniProt position 417, WTLTFDFPSGQ); conditions: 298 K; Conc. 0.10 (unit not given; K+/Cl–)

Q: For Calbindin D9k (apo) (Bos taurus), which pKa (Lys55) is on record?
A: Its pKa is 12.95.

Q: And the pKa (Lys29)?
A: The pKa was 11.81.

Q: And the pKa (Lys41 [1])?
A: Its pKa is 11.02.

Q: What about the pKa (Lys71) of the same substance?
A: The pKa was 11.22.

Q: What about the pKa (Lys12) of the same substance?
A: The pKa was 12.02.

Q: What about the pKa (Lys72) of the same substance?
A: Its pKa is 11.95.

Q: And the pKa (Lys16)?
A: Its pKa is 11.90.

Q: And the pKa (Lys25)?
A: The pKa was 13.21.

Q: What about the pKa (Lys7) of the same substance?
A: The pKa was 12.53.

Q: For Barnase (Bacillus amyloliquefaciens), which pKa (Asp12) is on record?
A: Its pKa is 3.6 ± 0.2.

Q: What about the pKa (Asp44) of the same substance?
A: Its pKa is 3.6 ± 0.1.

Q: And the pKa (Asp93)?
A: Its pKa is under 2.0.

Q: What about the pKa (Glu73) of the same substance?
A: Its pKa is 2.1 ± 0.1.

Q: What about the pKa (Asp75) of the same substance?
A: The pKa was 3.1 ± 0.2.

Q: What about the pKa (Asp86) of the same substance?
A: Its pKa is 4.2 ± 0.1.

Q: What about the pKa (Asp22) of the same substance?
A: The pKa was 3.3 ± 0.1.

Q: And the pKa (Asp54)?
A: Its pKa is 2.2 ± 0.3.

Q: What about the pKa (Asp8) of the same substance?
A: Its pKa is 3.1 ± 0.2.

Q: What about the pKa (Asp101) of the same substance?
A: The pKa was 2.0 ± 0.2.

Q: What about the pKa (Glu29) of the same substance?
A: The pKa was 3.75 ± 0.05.

Q: And the pKa (Glu60)?
A: Its pKa is 3.4 ± 0.1.

Q: With “Bovine pancreatic trypsin inhibitor (BPTI) (Bos taurus)” as the substance, how does the pKa (Glu49) read?
A: The pKa was 3.75 ± 0.05.

Q: And the pKa (Asp50)?
A: The pKa was 3.20 ± 0.20.

Q: And the pKa (Asp3)?
A: Its pKa is 3.25 ± 0.15.

Q: What about the pKa (Lys26) of the same substance?
A: Its pKa is 10.60.

Q: And the pKa (Lys41 [2])?
A: Its pKa is 11.20.

Q: What about the pKa (Lys15) of the same substance?
A: The pKa was 10.60.

Q: And the pKa (Lys46)?
A: The pKa was 10.30.

Q: And the pKa (Glu7)?
A: The pKa was 3.65 ± 0.05.

Q: With “Beta-cryptogein (beta-elicitin) (Phytophthora cryptogea)” as the substance, how does the pKa (Lys94) read?
A: The pKa was 9.4.

Q: And the pKa (Asp21)?
A: The pKa was 2.49 ± 0.05.

Q: What about the pKa (Lys61) of the same substance?
A: Its pKa is 10.1.

Q: What about the pKa (Asp30) of the same substance?
A: Its pKa is 2.51 ± 0.09.

Q: What about the pKa (Asp72) of the same substance?
A: The pKa was 2.61 ± 0.15.

Q: With “Highly charge-depleted protein (PDB 6QFS), S43D variant (Cellulomonas fimi (parent domain; not stated in the article); S43D (on the 6QFS charge-depleted background; background substitutions not stated))” as the substance, how does the pKa (Asp43) read?
A: The pKa was 4.37 ± 0.01.
